Target: the molecule itself
Assay: crystal structure

| Protein | stoichiometry N |
| --- | --- |
| Myxococcus xanthus encapsulin cargo protein EncB (ferritin-like protein) (natural protein, M. xanthus, UniProt Q1D6H3 1-158, looked up) MAGPPDSDLDDVARIRLVLARELETINEYEAYARASSNPEVRAFFQHLAAEEKEHVSEAVHMLRMLDSGQNDHFAKPFVPGHFQAAEAPAPATVHVPTPDGPAFSVNGRNGRLPSEPPTSLPPQRLLYGLPAPPPAVESHPLTVGSLRRGGGGSGSGR | 10 |
| Myxococcus xanthus encapsulin cargo protein EncC (ferritin-like protein) (natural protein, M. xanthus) MPQTNPFHSLVPRKMTDTELARSIRLNIEAELDAINLYAAHIDATDNEDAKAILQHVMDEEREHAALFWELIARLDPEQAAHAKEAVEKYRLITSGASHEAVEAVGKEGAAPSPADVTPEKRLTVGSLRR | 10 |

From article PMC8995368 (Structure (London, England : 1993), 2022)
